Earlier results, collected in patent publication US20260009081A1, “CLONAL HEMATOPOIESIS AND CYTOKINE TARGETS” (TRUSTEES OF BOSTON UNIVERSITY, priority 2018, published 2026).

Biological target: T1, IL-1β (Homo sapiens, UniProt P01584)
T1 construct: endogenous in cells; host or cells: CANTOS trial patients (endogenous cytokine)

canakinumab: IL-1β neutralizing antibody; interleukin 1 beta monoclonal antibody
side effect of therapy (patients): infection side effect
major adverse cardiovascular events (patients with stable coronary artery disease and elevated C-reactive protein): can reduce major adverse cardiovascular events
